This is an account of results in patent US20240010684A1 (Bayer, published 2024).

*1 amine or outer side, *2 acyl side, *3 side chain or, on linkers, in order; H or OH if unused. Bridges are numbered along the chain shown (N, C = ends). Where no end group is shown, it is not given here. [ ]: non-standard residue; d: D form. TTDS = 1,13-diamino-4,7,10-trioxatridecan-succinamic acid, O=C(CCC(=O)[*:2])NCCCOCCOCCOCCCN[*:1]; Oic = O=C(O)[C@@H]1C[C@@H]2CCCC[C@@H]2N1; Trx = NC[C@H]1CC[C@H](C(=O)O)CC1; tBuAla = CC(C)(C)C[C@H](N)C(=O)O; Pen = CC(C)(S)[C@H](N)C(=O)O; Orn = NCCC[C@H](N)C(=O)O; Dap = NC[C@H](N)C(=O)O; Ahx = NCCCCCC(=O)O

In one assay the target is T1, recombinant human MASP1 (amino acids 297-699, C-terminal His Tag) (human, UniProt P48740 297-699).
T1 sequence: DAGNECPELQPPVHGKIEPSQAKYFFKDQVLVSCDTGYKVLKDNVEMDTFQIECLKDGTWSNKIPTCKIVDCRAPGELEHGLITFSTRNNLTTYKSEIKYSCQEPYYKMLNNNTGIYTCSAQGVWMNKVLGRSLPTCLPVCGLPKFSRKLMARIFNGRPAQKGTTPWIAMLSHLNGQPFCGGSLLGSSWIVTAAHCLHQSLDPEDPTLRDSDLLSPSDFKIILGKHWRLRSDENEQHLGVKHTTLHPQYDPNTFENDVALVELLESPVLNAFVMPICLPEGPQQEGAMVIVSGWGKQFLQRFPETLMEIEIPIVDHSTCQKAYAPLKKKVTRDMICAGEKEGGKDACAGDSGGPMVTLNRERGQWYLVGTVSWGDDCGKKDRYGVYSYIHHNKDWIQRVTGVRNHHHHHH
In words: cell-based or functional assay.
Consider cyclo(AGGICSRSLPPICIP[dD]) (disulfide 5-13; also: TFA salt) [Example 17: A**GGIC+SRSLPPIC+IPd**], for which the “human MASP1 IC50” value stood at 26 nM.

As for cyclo([Orn]GICSRS[tBuAla]PPI[Pen]I) (disulfide 4-12; also: TFA salt) [Example 65: (Orn)**-GIC+SRS-((tBu)A)-PPI-(Pen)+-I**], the “human MASP1 IC50” value amounted to 49 nM.

For [Orn]ICSRS[tBuAla]PPI[Pen]IP (lactam 1-C; disulfide 3-11; also: TFA salt) [Example 71: (Orn)++-IC+SRS-((tBu)A)-PPI-(Pen)+-IP**], the “human MASP1 IC50” value was found to be 21 nM.

With [Ahx]AICSRSLP[Oic]I[Pen]IPE-NH2 (disulfide 4-12; lactam N-15; also: TFA salt) [Example 74: (Ahx)**-AIC+SRSLP-(Oic)-I-(Pen)+-IPE++-NH2], the “human MASP1 IC50” value stood at 14 nM.

On to [Dap][Dap]ICSRSLP[Oic]I[Pen]IP (lactam 1-C; disulfide 4-12; also: TFA salt) [Example 86: (Dap)++-(Dap)-IC+SRSLP-(Oic)-I-(Pen)+-IP**], for which the “human MASP1 IC50” value came to 27 nM.

As for cyclo([Ahx]GICSRSLPPICIPD) (disulfide 4-12; also: HCl salt) [Example 94: (Ahx)**-GIC+SRSLPPIC+IPD** (HCl Salt)], the “human MASP1 IC50” value came out at 120 nM.

For the molecule cyclo([TTDS]AICSRS[tBuAla]PPI[Pen]IPD) (disulfide 4-12; also: TFA salt) [Example 63: (TTDS)**-AIC+SRS-((tBu)A)-PPI-(Pen)+-IPD**], the “human MASP1 IC50” value was determined as 28 nM.

For cyclo(GGICSRSLPPICIPD) (disulfide 4-12; also: TFA salt) [Example 15: G**GIC+SRSLPPIC+IPD**], the “human MASP1 IC50” value is 120 nM.

Regarding [Orn]AICSRS[tBuAla]PPI[Pen]IPD-NH2 (lactam 1-15; disulfide 4-12; also: TFA salt) [Example 61: (Orn)++-AIC+SRS-((tBu)A)-PPI-(Pen)+-IPD++-NH2], the “human MASP1 IC50” value amounted to 3.1 nM.

Regarding EGICSRSLP[Oic]I[Pen]IPK-NH2 (lactam 1-15; disulfide 4-12; also: TFA salt) [Example 90: E++GIC+SRSLP-(Oic)-I-(Pen)+-IPK++-NH2], the “human MASP1 IC50” value is 9.8 nM.

[dK]ICSRS[tBuAla]PPI[Pen]I (lactam 1-C; disulfide 3-11; also: TFA salt) [Example 80: k++-IC+SRS-((tBu)A)-PPI-(Pen)+-I**]: the “human MASP1 IC50” value was found to be 11 nM.

Turning to cyclo([Dap]ICSRSLP[Oic]I[Pen]IP) (disulfide 3-11; also: TFA salt) [Example 87: (Dap)**-IC+SRSLP-(Oic)-I-(Pen)+-IP**], the “human MASP1 IC50” value was determined as 46 nM.

Turning to [Dap]ICSRSLP[Oic]I[Pen]IP (lactam 1-C; disulfide 3-11; also: TFA salt) [Example 85: (Dap)++-IC+SRSLP-(Oic)-I-(Pen)+-IP**], the “human MASP1 IC50” value is 1000 nM.

As for [3‑azido‑L‑alanine]GAICSRS[tBuAla]PPICIP[L‑propargylglycine]-NH2 (triazole 1-16; disulfide 5-13; also: TFA salt), the “human MASP1 IC50” value was found to be 18 nM.

Take [Orn]ICSRS[tBuAla]PPI[Pen]I (lactam 1-C; disulfide 3-11; also: TFA salt) [Example 66: (Orn)++-IC+SRS-((tBu)A)-PPI-(Pen)+-I**]: the “human MASP1 IC50” value came out at 8.1 nM.

Take KICSRS[tBuAla]PPI[Pen]I (lactam 1-C; disulfide 3-11; also: TFA salt) [Example 67: K++-IC+SRS-((tBu)A)-PPI-(Pen)+-I**]: the “human MASP1 IC50” value worked out at 3.25 nM.

On to G[Trx]GICSRS[tBuAla]PPI[Pen]IPD-NH2 (disulfide 5-13; lactam N-16; also: TFA salt) [Example 62: G**-(TXA)-GIC+SRS-((tBu)A)-PPI-(Pen)+-IPD++-NH2], for which the “human MASP1 IC50” value was found to be 22 nM.

The target of the next assay is recombinant human MASP2 (amino acids 297-686, C-terminal His Tag) (human, UniProt O00187 297-686). The assay is described as follows: cell-based or functional assay.
Sequence of recombinant human MASP2 (amino acids 297-686, C-terminal His Tag) (O00187 other isoform, or with tags, fused parts or gaps limits assumed): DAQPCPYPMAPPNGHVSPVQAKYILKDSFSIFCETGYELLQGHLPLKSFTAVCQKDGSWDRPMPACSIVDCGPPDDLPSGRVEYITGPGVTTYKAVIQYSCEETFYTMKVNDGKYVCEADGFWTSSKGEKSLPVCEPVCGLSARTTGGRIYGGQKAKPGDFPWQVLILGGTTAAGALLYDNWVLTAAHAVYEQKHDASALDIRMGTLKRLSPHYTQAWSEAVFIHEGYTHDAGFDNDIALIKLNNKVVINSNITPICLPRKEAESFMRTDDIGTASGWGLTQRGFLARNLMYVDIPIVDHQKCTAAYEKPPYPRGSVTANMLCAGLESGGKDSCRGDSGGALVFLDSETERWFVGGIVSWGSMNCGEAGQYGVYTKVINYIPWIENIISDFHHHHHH
Turning to cyclo(AGGICSRSLPPICIP[dD]) (disulfide 5-13; also: TFA salt) [Example 17: A**GGIC+SRSLPPIC+IPd**], the “human MASP2 IC50” value stood at 88 nM.

Turning to cyclo([Orn]GICSRS[tBuAla]PPI[Pen]I) (disulfide 4-12; also: TFA salt) [Example 65: (Orn)**-GIC+SRS-((tBu)A)-PPI-(Pen)+-I**], the “human MASP2 IC50” value is 540 nM.

For [Orn]ICSRS[tBuAla]PPI[Pen]IP (lactam 1-C; disulfide 3-11; also: TFA salt) [Example 71: (Orn)++-IC+SRS-((tBu)A)-PPI-(Pen)+-IP**], the “human MASP2 IC50” value turned out to be 24 nM.

As for [Ahx]AICSRSLP[Oic]I[Pen]IPE-NH2 (disulfide 4-12; lactam N-15; also: TFA salt) [Example 74: (Ahx)**-AIC+SRSLP-(Oic)-I-(Pen)+-IPE++-NH2], the “human MASP2 IC50” value is 160 nM.

In the case of [Dap][Dap]ICSRSLP[Oic]I[Pen]IP (lactam 1-C; disulfide 4-12; also: TFA salt) [Example 86: (Dap)++-(Dap)-IC+SRSLP-(Oic)-I-(Pen)+-IP**], the “human MASP2 IC50” value worked out at 1000 nM.

For cyclo([Ahx]GICSRSLPPICIPD) (disulfide 4-12; also: HCl salt) [Example 94: (Ahx)**-GIC+SRSLPPIC+IPD** (HCl Salt)], the “human MASP2 IC50” value is 130 nM.

On to cyclo([TTDS]AICSRS[tBuAla]PPI[Pen]IPD) (disulfide 4-12; also: TFA salt) [Example 63: (TTDS)**-AIC+SRS-((tBu)A)-PPI-(Pen)+-IPD**], for which the “human MASP2 IC50” value stood at 170 nM.

Consider cyclo(GGICSRSLPPICIPD) (disulfide 4-12; also: TFA salt) [Example 15: G**GIC+SRSLPPIC+IPD**], for which the “human MASP2 IC50” value was determined as 300 nM.

On to [Orn]AICSRS[tBuAla]PPI[Pen]IPD-NH2 (lactam 1-15; disulfide 4-12; also: TFA salt) [Example 61: (Orn)++-AIC+SRS-((tBu)A)-PPI-(Pen)+-IPD++-NH2], for which the “human MASP2 IC50” value worked out at 310 nM.

With EGICSRSLP[Oic]I[Pen]IPK-NH2 (lactam 1-15; disulfide 4-12; also: TFA salt) [Example 90: E++GIC+SRSLP-(Oic)-I-(Pen)+-IPK++-NH2], the “human MASP2 IC50” value was 110 nM.

As to [dK]ICSRS[tBuAla]PPI[Pen]I (lactam 1-C; disulfide 3-11; also: TFA salt) [Example 80: k++-IC+SRS-((tBu)A)-PPI-(Pen)+-I**], the “human MASP2 IC50” value stood at 6.8 nM.

Consider cyclo([Dap]ICSRSLP[Oic]I[Pen]IP) (disulfide 3-11; also: TFA salt) [Example 87: (Dap)**-IC+SRSLP-(Oic)-I-(Pen)+-IP**], for which the “human MASP2 IC50” value was 700 nM.

On to [Dap]ICSRSLP[Oic]I[Pen]IP (lactam 1-C; disulfide 3-11; also: TFA salt) [Example 85: (Dap)++-IC+SRSLP-(Oic)-I-(Pen)+-IP**], for which the “human MASP2 IC50” value was 1000 nM.

Turning to [3‑azido‑L‑alanine]GAICSRS[tBuAla]PPICIP[L‑propargylglycine]-NH2 (triazole 1-16; disulfide 5-13; also: TFA salt), the “human MASP2 IC50” value turned out to be 230 nM.

Take [Orn]ICSRS[tBuAla]PPI[Pen]I (lactam 1-C; disulfide 3-11; also: TFA salt) [Example 66: (Orn)++-IC+SRS-((tBu)A)-PPI-(Pen)+-I**]: the “human MASP2 IC50” value worked out at 22 nM.

In the case of KICSRS[tBuAla]PPI[Pen]I (lactam 1-C; disulfide 3-11; also: TFA salt) [Example 67: K++-IC+SRS-((tBu)A)-PPI-(Pen)+-I**], the “human MASP2 IC50” value came to 150 nM.

For G[Trx]GICSRS[tBuAla]PPI[Pen]IPD-NH2 (disulfide 5-13; lactam N-16; also: TFA salt) [Example 62: G**-(TXA)-GIC+SRS-((tBu)A)-PPI-(Pen)+-IPD++-NH2], the “human MASP2 IC50” value is 540 nM.
